# US7097982 (IMMUNOGEN, dated 2006)
# B1: Bip1a (other, UniProt Q13323 1-160, looked up)
# chain: MSEVRPLSRDILMETLLYEQLLEPPTMEVLGMTDSEEDLDPMEDFDSLECMEGSDALALRLACIGDEMDVSLRAPRLAQLSEVAMHSLGLAFIYDQTEDIRDVLRSFMDGFTTLKENIMRFWRSPNPGSWVSCEQVLLALLLLLALLLPLLSGGLHLLLK
# notes: Used in vitro translated and 35S labeled, and expressed in transfected COS cells; also called in vitro translated, 35S labeled Bip1a
# B2: Bak, in vitro translated, 35S-methionine labeled (other, UniProt Q16611 1-211, looked up)
# chain: MASGQGPGPPRQECGEPALPSASEEQVAQDTEEVFRSYVFYRHQQEQEAEGVAAPADPEMVTLPLQPSSTMGQVGRQLAIIGDDINRRYDSEFQTMLQHLQPTAENAYEYFTKIATSLFESGINWGRVVALLGFGYRLALHVYQHGLTGFLGQVTRFVVDFMLHHCIARWIAQRGGWVAALNLGNGPILNVLVVLGVVLLGQFVVRRFFKS
# modifications: 35S-methionine label
# notes: also called 35S labeled in vitro translated Bak; 35Met-labeled Bak
# B3: Bax ΔGD mutant (other, UniProt Q07812 1-192, looked up)
# chain: MDGSGEQPRGGGPTSSEQIMKTGALLLQGFIQDRAGRMGGEAPELALDPVPQDASTKKMELQRMIAAVDTDSPREVFFRVAADMFSDGNFNWGRVVALFYFASKLVLKALCTKVPELIRTIMGWTLDFLRERLLGWIQDQGGWDGLLSYFGTPTWQTVTIFVAGVLTASLTIWKKMG
# B4: Bip1a ΔGD mutant (other, UniProt Q13323 1-160, looked up)
# chain: MSEVRPLSRDILMETLLYEQLLEPPTMEVLGMTDSEEDLDPMEDFDSLECMEGSDALRAPRLAQLSEVAMHSLGLAFIYDQTEDIRDVLRSFMDGFTTLKENIMRFWRSPNPGSWVSCEQVLLALLLLLALLLPLLSGGLHLLLK
# Tests used:
# [1] = biological target: GST-PEM bacterially-expressed fusion protein (Bak residues 58-103 fused to GST) (UniProt P08515 1-218 = GST; Q16611 58-103); assay: GST pull-down of in vitro translated 35S labeled protein
# [2] = biological target: GST alone (purified, bacterially expressed) (UniProt P08515 1-218 = GST); assay: GST pull-down on glutathione-agarose, autoradiography
# [3] = biological target: T1, Flag tag-Bcl-xL (UniProt Q07817 1-233); assay: co-immunoprecipitation from transfected COS cells (summarised in FIG. 6)
# T1 construct: Expressed in transfected COS cells; also called Flag-Bcl-xL
# T1 sequence (Q07817 whole entry): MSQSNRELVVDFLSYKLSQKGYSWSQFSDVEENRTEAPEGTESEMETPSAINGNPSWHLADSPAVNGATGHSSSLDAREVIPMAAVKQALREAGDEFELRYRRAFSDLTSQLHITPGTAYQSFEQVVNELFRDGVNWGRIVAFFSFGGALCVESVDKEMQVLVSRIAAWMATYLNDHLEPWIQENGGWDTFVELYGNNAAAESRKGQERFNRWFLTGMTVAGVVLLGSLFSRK
# GST alone (purified, bacterially expressed), sequence (P08515 whole entry): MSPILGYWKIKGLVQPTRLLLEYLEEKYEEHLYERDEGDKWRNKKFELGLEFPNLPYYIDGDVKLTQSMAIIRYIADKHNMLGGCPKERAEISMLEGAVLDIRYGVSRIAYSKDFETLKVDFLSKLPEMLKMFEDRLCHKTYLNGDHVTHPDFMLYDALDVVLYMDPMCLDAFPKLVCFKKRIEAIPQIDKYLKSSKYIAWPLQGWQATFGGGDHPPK
# GST-PEM bacterially-expressed fusion protein (Bak residues 58-103 fused to GST), sequence (P08515 1-218, tags or fused parts left off): as the sequence (P08515 whole entry) above
binder,measurement,setting,value
B1,binding result,[1],no binding
B2,binding result,[2],no binding
B3,binding result,[3],no binding
B4,binding result,[3],no binding
